From publication PMC10897178, “FANCJ DNA helicase is recruited to the replisome by AND-1 to ensure genome stability” (EMBO Reports, 2024)

B1: full-length 10xHis-Myc-tagged AND-1 (natural protein, human, UniProt O75717 1-1129, looked up)
chain: MPATRKPMRYGHTEGHTEVCFDDSGSFIVTCGSDGDVRIWEDLDDDDPKFINVGEKAYSCALKSGKLVTAVSNNTIQVHTFPEGVPDGILTRFTTNANHVVFNGDGTKIAAGSSDFLVKIVDVMDSSQQKTFRGHDAPVLSLSFDPKDIFLASASCDGSVRVWQISDQTCAISWPLLQKCNDVINAKSICRLAWQPKSGKLLAIPVEKSVKLYRRESWSHQFDLSDNFISQTLNIVTWSPCGQYLAAGSINGLIIVWNVETKDCMERVKHEKGYAICGLAWHPTCGRISYTDAEGNLGLLENVCDPSGKTSSSKVSSRVEKDYNDLFDGDDMSNAGDFLNDNAVEIPSFSKGIINDDEDDEDLMMASGRPRQRSHILEDDENSVDISMLKTGSSLLKEEEEDGQEGSIHNLPLVTSQRPFYDGPMPTPRQKPFQSGSTPLHLTHRFMVWNSIGIIRCYNDEQDNAIDVEFHDTSIHHATHLSNTLNYTIADLSHEAILLACESTDELASKLHCLHFSSWDSSKEWIIDLPQNEDIEAICLGQGWAAAATSALLLRLFTIGGVQKEVFSLAGPVVSMAGHGEQLFIVYHRGTGFDGDQCLGVQLLELGKKKKQILHGDPLPLTRKSYLAWIGFSAEGTPCYVDSEGIVRMLNRGLGNTWTPICNTREHCKGKSDHYWVVGIHENPQQLRCIPCKGSRFPPTLPRPAVAILSFKLPYCQIATEKGQMEEQFWRSVIFHNHLDYLAKNGYEYEESTKNQATKEQQELLMKMLALSCKLEREFRCVELADLMTQNAVNLAIKYASRSRKLILAQKLSELAVEKAAELTATQVEEEEEEEDFRKKLNAGYSNTATEWSQPRFRNQVEEDAEDSGEADDEEKPEIHKPGQNSFSKSTNSSDVSAKSGAVTFSSQGRVNPFKVSASSKEPAMSMNSARSTNILDNMGKSSKKSTALSRTTNNEKSPIIKPLIPKPKPKQASAASYFQKRNSQTNKTEEVKEENLKNVLSETPAICPPQNTENQRPKTGFQMWLEENRSNILSDNPDFSDEADIIKEGMIRFRVLSTEERKVWANKAKGETASEGTEAKKRKRVVDESDETENQEEKAKENLNLSKKQKPLDFSTNQKLSAFAFKQE
notes: AND-1 (WDHD1), human, full length, amino-acid residues 1-1129; pFBDM construct from Luca Pellegrini (Kilkenny et al, 2017); also called His10-Myc-tagged AND-1; AND-1 full-length; source: High-Five insect cells, baculovirus, purified (Ni-NTA, HiTrap Q)
B2: GST-FANCJ CIP box wild type (domain or fragment, human, UniProt Q9BX63 730-747, looked up)
chain: GEKTNFDELLQVYYDAIK
notes: FANCJ (BRIP1), human, CIP box, amino-acid residues 730-747; also called GST-CIP box WT; source: transformed cells cultured in LB medium, IPTG-induced (pGEX-6P-1); captured from the soluble extract on Glutathione Sepharose 4B beads
B3: 6xHis-tagged AND-1 SepB (domain or fragment, human, UniProt O75717 336-826, looked up)
chain: GDFLNDNAVEIPSFSKGIINDDEDDEDLMMASGRPRQRSHILEDDENSVDISMLKTGSSLLKEEEEDGQEGSIHNLPLVTSQRPFYDGPMPTPRQKPFQSGSTPLHLTHRFMVWNSIGIIRCYNDEQDNAIDVEFHDTSIHHATHLSNTLNYTIADLSHEAILLACESTDELASKLHCLHFSSWDSSKEWIIDLPQNEDIEAICLGQGWAAAATSALLLRLFTIGGVQKEVFSLAGPVVSMAGHGEQLFIVYHRGTGFDGDQCLGVQLLELGKKKKQILHGDPLPLTRKSYLAWIGFSAEGTPCYVDSEGIVRMLNRGLGNTWTPICNTREHCKGKSDHYWVVGIHENPQQLRCIPCKGSRFPPTLPRPAVAILSFKLPYCQIATEKGQMEEQFWRSVIFHNHLDYLAKNGYEYEESTKNQATKEQQELLMKMLALSCKLEREFRCVELADLMTQNAVNLAIKYASRSRKLILAQKLSELAVEKAAELTAT
notes: AND-1 (WDHD1), human, SepB domain, amino-acid residues 336-826; pRSF-Duet-1 construct from Luca Pellegrini; purification as in Kilkenny et al, 2017; also called 6xHis-SepB; AND-1 SepB domain; source: E. coli BL21 (DE3), purified

How the values were obtained:
Conditions in all cases: both partners purified
[1] = target: T1, Flag-tagged FANCJ wild type (human, UniProt Q9BX63 1-1249); test: pull-down; His10-Myc-AND-1 (12 μg) on c-Myc magnetic beads, purified FANCJ (4 μg) added; PBS, 5% glycerol, 0.5 mM TCEP, 0.2% Igepal, Benzonase, 2 h at 4 °C; Western blot
T1 construct: FANCJ (BRIP1, BACH1) DNA helicase, human, open reading frame; purified as full-length protein; Plasmid from Hisao Masai (Uno et al, 2012); also called FANCJ WT; Flag-FANCJ WT; source: HEK 293T, transiently transfected (pCSII-EF-MCS): in whole-cell extract or nuclear fraction; also purified (anti-Flag M2 agarose, 3x Flag-peptide elution)
T1 sequence (looked up): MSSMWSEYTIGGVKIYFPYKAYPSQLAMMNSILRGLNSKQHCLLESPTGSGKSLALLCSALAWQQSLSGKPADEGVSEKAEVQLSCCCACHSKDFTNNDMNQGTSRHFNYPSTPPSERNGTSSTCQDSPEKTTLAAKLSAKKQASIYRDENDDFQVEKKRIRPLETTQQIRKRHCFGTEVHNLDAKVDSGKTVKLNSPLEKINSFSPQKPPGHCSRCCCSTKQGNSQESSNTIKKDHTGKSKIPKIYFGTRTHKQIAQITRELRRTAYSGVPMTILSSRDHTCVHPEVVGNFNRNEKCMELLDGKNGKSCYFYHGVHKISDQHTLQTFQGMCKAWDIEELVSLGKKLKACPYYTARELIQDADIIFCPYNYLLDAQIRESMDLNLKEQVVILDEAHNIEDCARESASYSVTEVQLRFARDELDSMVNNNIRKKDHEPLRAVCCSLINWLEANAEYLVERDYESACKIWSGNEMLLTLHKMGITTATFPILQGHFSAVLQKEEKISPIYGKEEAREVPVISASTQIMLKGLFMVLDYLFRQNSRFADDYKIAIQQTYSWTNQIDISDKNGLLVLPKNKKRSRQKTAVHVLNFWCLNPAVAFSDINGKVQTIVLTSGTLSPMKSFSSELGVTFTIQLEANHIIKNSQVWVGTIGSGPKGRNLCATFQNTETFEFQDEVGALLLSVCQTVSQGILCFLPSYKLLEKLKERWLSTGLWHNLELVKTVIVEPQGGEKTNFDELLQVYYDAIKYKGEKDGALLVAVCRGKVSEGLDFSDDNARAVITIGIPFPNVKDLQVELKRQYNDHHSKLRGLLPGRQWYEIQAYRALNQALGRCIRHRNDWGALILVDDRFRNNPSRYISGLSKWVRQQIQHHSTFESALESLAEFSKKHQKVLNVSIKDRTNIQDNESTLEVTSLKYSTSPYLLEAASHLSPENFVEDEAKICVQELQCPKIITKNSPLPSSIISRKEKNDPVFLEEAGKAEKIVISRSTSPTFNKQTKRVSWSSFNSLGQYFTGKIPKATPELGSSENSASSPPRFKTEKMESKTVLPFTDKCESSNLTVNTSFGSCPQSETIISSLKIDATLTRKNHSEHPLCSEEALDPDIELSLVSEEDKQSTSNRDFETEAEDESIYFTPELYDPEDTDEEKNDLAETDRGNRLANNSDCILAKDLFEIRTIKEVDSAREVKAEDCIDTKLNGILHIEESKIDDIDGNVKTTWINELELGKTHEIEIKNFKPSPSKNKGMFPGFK

6xHis-tagged AND-1 SepB = target: B3; test: pull-down; GST-FANCJ CIP box on Glutathione Sepharose 4B beads, purified AND-1 SepB (0.5 mg in 500 μL) added; PD Buffer 1 with 1% BSA, 1 h at 4 °C; SDS-PAGE, Coomassie
[2] = target: T1, Flag-tagged FANCJ wild type; test: pull-down; Flag-tagged protein (2 µg) on anti-Flag M2 agarose beads, purified AND-1 SepB (4 µg) added; 20 mM HEPES-NaOH pH 7.2, 150 mM NaCl, 0.1% Igepal, 1% BSA, 4 °C; Western blot

B1
binding result [1]: binds

B2
binding result (6xHis-tagged AND-1 SepB): binds

B3
binding result [2]: binds
